NF-κB activation data for twelve molecules are collected here from patent publication US8524668 (CLEVELAND CLINIC FOUNDATION, dated 2013).

Ends that are not written are not given here. Pam2 = S-(2,3-dihydroxypropyl)-cysteine acylated by two palmitic acids (lipo-cysteine)

B1: CBLB601 (R-PAM2C-SKKKK) (peptide)
peptide: CSKKKK
modifications: N-terminal Cys is the R-Pam2 lipoamino acid (S-(2,3-dihydroxypropyl)-cysteine acylated by two palmitic acids, R stereoisomer)

For the experiment, the target named is TLR2/TLR6 heterodimer. The experiment can be described thus: cell-based or functional assay.
Molecule GEESN (not fully specified (N-terminus)) [CBLB615] yielded an NF-κB activation of 200.

The molecule Pam2-GDPKHPKSFTGWVA [CBLB607] came in with an NF-κB activation of 2.

QGEESNDK (not fully specified (N-terminus)) [CBLB614] showed an NF-κB activation of 200.

As to Pam2-GSHHM [CBLB604], the NF-κB activation stood at 0.

Take Pam2-FEPPPATTTKSK [CBLB608]: the NF-κB activation was 2.

Turning to GETDKEGKIIRIFDNSF (not fully specified (N-terminus)) [CBLB611], the NF-κB activation was determined as 0.

The molecule Pam2-GQHHM [CBLB603] registered an NF-κB activation of 0.

On to VQGEESNDK (not fully specified (N-terminus)) [CBLB612], for which the NF-κB activation is 200.

As for Pam2-GQHHH [CBLB602], the NF-κB activation came to 0.

With Pam2-SQMHH [CBLB605], the NF-κB activation amounted to 2.

As to {R‑Pam2}-GDPKHPKSF [CBLB606], the NF-κB activation was 100.

In turn, B1 yielded an NF-κB activation of 100.
